The assay deals with mutant M9R α-tropomyosin_(slow) (human) (UniProt P06753). Briefly: far-Western, overlay or dot blot.
Chain of UniProt P06753 (P06753 whole entry M9R): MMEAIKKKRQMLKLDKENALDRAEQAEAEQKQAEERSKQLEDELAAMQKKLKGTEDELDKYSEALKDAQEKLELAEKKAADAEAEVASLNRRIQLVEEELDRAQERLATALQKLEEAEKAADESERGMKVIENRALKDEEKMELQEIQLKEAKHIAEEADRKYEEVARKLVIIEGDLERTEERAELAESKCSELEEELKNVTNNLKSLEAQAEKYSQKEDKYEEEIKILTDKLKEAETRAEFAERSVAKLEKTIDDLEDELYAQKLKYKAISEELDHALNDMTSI

For “Recombinant human Tmod1 protein (from UniProt P28289 1-359) (natural protein)”, the percent of the binding to wild-type α-tropomyosin (slow) came to 10%.

The values are drawn from article PMC2746243.
